Read-outs that look alike come from different tables or passages of the source.
Tests used:
[1] = molecular target: human-CD45RO-ECD-His (human) (UniProt P08575); assay: ELISA, human-CD45RO-ECD-His-coated plates
[2] = molecular target: human-CD45RO-ECD-His (human) (UniProt P08575); assay: ELISA, human-CD45RO-ECD-His-coated plates; remark: listed apart in the source
[3] = molecular target: human-CD45RO-ECD-His (human) (UniProt P08575); assay: SPR, captured human-CD45RO-ECD-His, 1:1 binding

CD45RO Monoclonal Antibody (UCHL1) (eBioscience™)
EC50 [1]: 0.328 nM
EC50 [2]: 0.544 nM
Kd [3]: 433 nM
koff [3]: 0.00373 s⁻¹
kon [3]: 8610 M⁻¹ s⁻¹

Reference: patent US20250320294A1
